Measured values as given in the supplement of paper PMC11136658.

System: peptide library, one residue held at a place counted from the Y acceptor
Experiment: relative phosphorylation of the sub-library (ratio to the mean residue at this position); higher = residue favoured
Procedure, shortened: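 Each value expresses phosphorylation relative to the mean randomized residue. Purified recombinant kinases acted for 90 min in 384-well plates on biotinylated Tyr-centred peptide library mixtures, with one residue fixed at one position from −5 to +5, in the presence of 50 μM ATP with γ-32P-ATP. Signals were read by phosphorimaging after capture on streptavidin membranes, then normalized per position to the sum of the 18 randomized residues (16 in the Ser/Thr-free library) and multiplied by that number.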

Chain of WEE1, construct: aa215-end, human (P30291 215-646, looked up): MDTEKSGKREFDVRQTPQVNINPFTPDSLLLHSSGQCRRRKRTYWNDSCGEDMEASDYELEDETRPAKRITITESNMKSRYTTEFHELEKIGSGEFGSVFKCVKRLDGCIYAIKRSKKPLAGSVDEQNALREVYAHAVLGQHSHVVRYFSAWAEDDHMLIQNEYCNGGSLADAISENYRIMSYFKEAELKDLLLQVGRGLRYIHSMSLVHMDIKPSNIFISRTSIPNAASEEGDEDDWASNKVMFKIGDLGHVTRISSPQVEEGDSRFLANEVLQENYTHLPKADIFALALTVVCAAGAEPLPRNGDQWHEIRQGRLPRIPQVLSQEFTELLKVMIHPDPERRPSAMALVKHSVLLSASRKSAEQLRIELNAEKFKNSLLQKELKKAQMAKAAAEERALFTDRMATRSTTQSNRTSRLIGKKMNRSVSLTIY
Chain of ZAP70, construct: Full length, human (P43403 whole entry, looked up): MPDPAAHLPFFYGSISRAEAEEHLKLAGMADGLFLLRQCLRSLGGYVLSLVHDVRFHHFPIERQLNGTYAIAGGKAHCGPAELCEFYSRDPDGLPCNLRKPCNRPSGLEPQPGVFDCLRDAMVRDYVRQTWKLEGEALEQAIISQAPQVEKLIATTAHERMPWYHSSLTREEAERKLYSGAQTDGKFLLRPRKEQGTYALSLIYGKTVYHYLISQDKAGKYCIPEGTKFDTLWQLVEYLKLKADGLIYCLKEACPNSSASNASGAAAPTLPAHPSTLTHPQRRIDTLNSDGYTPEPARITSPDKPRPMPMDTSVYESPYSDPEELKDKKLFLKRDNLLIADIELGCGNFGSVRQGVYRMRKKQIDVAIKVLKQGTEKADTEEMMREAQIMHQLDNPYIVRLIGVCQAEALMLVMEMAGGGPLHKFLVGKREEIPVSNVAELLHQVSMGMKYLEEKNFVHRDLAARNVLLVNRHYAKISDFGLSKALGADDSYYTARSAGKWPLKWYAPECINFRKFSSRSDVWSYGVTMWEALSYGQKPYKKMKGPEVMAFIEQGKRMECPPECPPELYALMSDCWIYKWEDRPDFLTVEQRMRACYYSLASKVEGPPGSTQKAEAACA
Chain of YES1, construct: Full length, human (P07947 whole entry, looked up): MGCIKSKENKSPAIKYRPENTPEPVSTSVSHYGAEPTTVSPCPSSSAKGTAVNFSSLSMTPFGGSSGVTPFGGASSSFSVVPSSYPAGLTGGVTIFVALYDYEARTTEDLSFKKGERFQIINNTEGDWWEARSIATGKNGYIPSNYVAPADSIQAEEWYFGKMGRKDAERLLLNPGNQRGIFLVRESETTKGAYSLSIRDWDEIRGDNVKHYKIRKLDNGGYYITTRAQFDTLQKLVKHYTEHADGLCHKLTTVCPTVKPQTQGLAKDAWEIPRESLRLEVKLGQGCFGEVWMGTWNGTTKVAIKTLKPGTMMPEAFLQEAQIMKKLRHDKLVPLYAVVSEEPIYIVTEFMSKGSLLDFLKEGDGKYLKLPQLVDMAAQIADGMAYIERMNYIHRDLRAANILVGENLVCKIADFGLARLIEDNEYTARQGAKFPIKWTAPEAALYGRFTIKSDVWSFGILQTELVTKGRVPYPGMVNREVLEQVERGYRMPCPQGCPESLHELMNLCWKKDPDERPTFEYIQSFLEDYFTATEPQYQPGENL

WEE1, construct: aa215-end, human (from UniProt P30291)
relative phosphorylation
Details	at +1	at +2	at +3	at +4	at +5	at -1	at -2	at -3	at -4	at -5
A fixed	0.635	0.703	0.557	0.811	0.707	0.72	0.888	0.817	0.926	1.01
D fixed	0.354	0.437	0.425	0.604	0.562	0.619	0.593	0.846	0.849	0.957
E fixed	0.445	0.474	0.464	0.697	0.657	0.467	0.742	0.901	1.22	0.881
F fixed	0.997	1.33	0.969	0.816	0.746	2.25	0.867	1.26	1.13	1.14
G fixed	1.03	0.713	0.776	0.921	0.88	0.693	1.54	1.06	1.24	1.15
H fixed	0.739	0.685	0.93	0.927	1.05	1.04	0.85	0.748	0.809	0.762
I fixed	1	1.04	1.2	0.781	0.881	1.15	0.943	1.24	1.21	1.03
K fixed	1.44	1.9	2.15	2	1.9	0.93	1.04	1.1	0.986	1.1
L fixed	0.815	0.945	0.806	0.752	0.833	1.61	0.866	1.11	1.05	1.15
M fixed	0.892	1.03	0.922	1.11	0.9	1.2	0.741	1.06	0.977	1.01
N fixed	0.952	0.875	0.74	0.762	0.89	1.45	1	0.817	0.747	0.872
P fixed	0.598	0.573	0.636	0.758	0.755	0.753	0.84	1	0.995	0.956
Q fixed	0.913	0.856	0.772	0.98	0.804	0.564	0.733	0.691	0.945	0.88
R fixed	4.18	2.37	3.44	2.25	2.98	0.975	1.54	1.21	1.47	1.15
V fixed	0.819	0.941	0.93	0.751	0.675	1.11	0.924	1.12	0.907	1.02
W fixed	0.904	1.37	0.896	1.23	0.812	1.17	0.897	1.22	1.18	1.37
pThr fixed	0.975	0.775	0.584	0.671	0.815	0.866	1.12	1.3	0.896	1.06
pTyr fixed	1.06	1.05	0.703	0.834	0.882	7.21	1.38	1.76	1.33	1.25

YES1, construct: Full length, human (from UniProt P07947)
relative phosphorylation
Details	at +1	at +2	at +3	at +4	at +5	at -1	at -2	at -3	at -4	at -5
A fixed	1.59	1.07	0.621	0.835	0.959	0.583	0.987	0.821	0.944	0.967
D fixed	0.822	0.636	0.492	0.759	0.76	0.641	1.35	1.7	1.42	1.35
E fixed	1.32	1.28	0.546	0.885	0.867	0.819	1.41	2.16	1.57	1.1
F fixed	0.723	1.08	2.83	1.24	1.13	0.652	0.57	0.794	0.731	0.861
G fixed	2.83	0.751	0.668	1.01	0.957	0.569	1.11	1.04	1.25	1.03
H fixed	0.8	0.71	1	1.12	1.07	0.733	1.27	1.03	1.02	1.02
I fixed	0.589	1.15	1.52	0.814	0.675	3.12	0.56	0.559	0.75	0.675
K fixed	0.418	0.721	0.552	1.06	1.19	0.468	0.873	0.697	0.989	1.23
L fixed	0.596	1.08	1.46	0.866	0.841	1.71	0.679	0.66	0.951	0.719
M fixed	1.11	1.19	1.01	1.29	0.932	0.974	0.727	0.74	0.952	0.834
N fixed	0.644	0.791	0.657	0.899	1.09	0.463	1.4	1.39	1.01	1.35
P fixed	0.462	0.724	0.518	0.785	1.37	1.3	1.31	1.02	1.12	1.22
Q fixed	0.897	1	0.599	1.17	1.01	0.521	1.18	1.15	1.09	1.1
R fixed	0.538	0.951	0.913	1.36	1.51	0.399	0.95	0.76	1.01	1.16
S fixed	1.13	1.3	0.672	0.938	1.07	0.518	1.31	1.08	0.846	0.949
T fixed	1.08	1.44	0.908	1.01	1	1.51	0.968	0.862	0.727	0.908
V fixed	0.892	1.3	1.37	0.842	0.749	2.26	0.663	0.558	0.857	0.783
W fixed	1.54	0.815	1.67	1.11	0.821	0.766	0.69	0.979	0.762	0.755
pThr fixed	1.21	1.33	0.497	0.667	0.674	1.07	1.1	1.13	1.07	1.17
pTyr fixed	2.21	1.24	0.636	0.841	0.739	0.806	1.21	1.18	1.27	1.2

ZAP70, construct: Full length, human (from UniProt P43403)
relative phosphorylation
Details	at +1	at +2	at +3	at +4	at +5	at -1	at -2	at -3	at -4	at -5
A fixed	1.06	0.821	0.963	0.884	1.33	0.998	0.898	0.967	1.56	1.12
D fixed	0.587	0.722	0.434	1.07	1.28	3.39	1.51	2.04	1.67	1.57
E fixed	1.29	1.08	0.275	1	1.28	1.95	2.19	2.09	2.51	1.4
F fixed	1.5	1.2	0.924	0.707	0.618	0.579	0.492	0.617	0.494	0.863
G fixed	0.481	0.544	0.842	1.14	1.63	0.746	1.56	1.1	1.43	1.58
H fixed	1.33	0.773	0.947	1.21	0.872	0.946	1	0.848	0.854	1.15
I fixed	0.769	0.724	1.11	0.548	0.423	0.956	0.413	0.588	0.561	0.684
K fixed	0.553	0.811	0.389	1.01	0.858	0.496	0.629	0.638	0.609	0.847
L fixed	0.761	0.949	0.956	0.764	0.55	0.796	0.465	0.559	0.571	0.553
M fixed	0.97	0.827	1.98	0.997	0.83	0.671	0.633	0.54	0.618	0.947
N fixed	0.635	1.01	0.499	0.731	0.967	1.2	1.52	1.53	0.822	1.26
P fixed	0.314	0.988	2.61	1.77	2.28	0.594	0.845	1.06	1.76	1.08
Q fixed	1.4	1.14	0.626	1.28	0.936	0.958	1.46	1.01	1.03	0.886
R fixed	0.448	0.77	0.432	1	0.522	0.4	0.576	0.713	0.684	0.814
S fixed	0.981	0.862	1.09	1.05	1.15	0.899	1.39	1.36	0.877	0.847
T fixed	1.31	1.08	0.782	0.955	1.25	1.04	1.26	0.966	0.661	0.925
V fixed	1.56	0.99	1.55	0.907	0.617	0.8	0.693	0.666	0.676	0.837
W fixed	2.05	2.7	1.58	0.97	0.62	0.573	0.464	0.713	0.625	0.625
pThr fixed	1.75	2.19	0.364	0.792	1.55	6.59	4.22	4.5	2.58	2.92
pTyr fixed	14.8	2.62	0.501	0.573	1.09	16.3	3.62	4.31	3.03	2.17
